Data from patent US7482004B2, “Inhibitors of placental growth factor for the treatment of pathological angiogenesis, pathological arteriogenesis, inflammation, tumor formation and/or vascular leakage” (Vlaams Interuniversitair Instituut voor Biotechnologie vzw, priority 2000, dated 2009).
Marks after values point to notes of the source that are not given here.

Assays:
[1] = test system: PIGF^+/+ and PIGF^−/− smooth muscle cells; experiment: Smooth muscle cell migration; type: cell-based, mouse
Procedure: (§1) The reduced response of PIGF^−/− endothelial cells to VEGF was confirmed using cultured primary PIGF^−/− endothelial cells. […] Thus, PIGF determines and synergistically amplifies the response to VEGF.
(§2) Endothelial and smooth muscle cell culture: In order to obtain mouse capillary endothelial cells, anesthetized mice were injected s.c. with 500 μl of ice-cold matrigel containing bFGF (100 ng/ml) and heparin (100 μg/ml). After seven days, the matrigel pellet was dissected and enzymatically dispersed using 0.1% type II collagenase (Sigma, St. Louis, Mo.). Mouse endothelial cells were routinely cultured in T75 flasks coated with 0.1% gelatin in M131 medium supplemented with 5% MVGS (Gibco-BRL). Smooth muscle cells from mouse aorta were harvested and cultured as described (J. M. Herbert et al., 1997, FEBS Lett. 413, 401-404). Before stimulation, cells were starved in medium with 0.5% serum for 24 hours, after which they were stimulated with human VEGF165 and/or murine PIGF, or bFGF (all from R&D, Abingdon, UK) for 24 hours before analysis of the total cell number (proliferation) or the number of cells migrated after scrape-wounding (migration).

[2] = test system: PIGF^+/+ and PIGF^−/− smooth muscle cells; experiment: Smooth muscle cell proliferation; type: cell-based, mouse
Description: (§3) Proliferation and survival of endothelial cells in response to VEGF were studied. […] PIGF was also found to modulate the mitogenic response to VEGF of smooth muscle cells, known to express VEGFR-1 and VEGFR-2 (C. L. Grosskreutz et al., 1999, Microvasc. Res. 58, 128-136). […] Thus, PIGF affected endothelial and smooth muscle cells only when they were stimulated with VEGF.
as §2

[3] = test system: PLGF^−/− endothelial cells; experiment: Endothelial proliferation, PLGF-/- cells; type: cell-based, mouse
Description: as §3
(§4) The data represent the mean±SD of nine to twelve experiments. *: p<0.05 versus control (vehicle). None of the antibodies affected baseline endothelial proliferation in the absence of VEGF (not shown). Ab: polyclonal antiserum; MoAb: monoclonal antibodies; bFGF: basic fibroblast growth factor.
as §2, with “Before stimulation, cells were starved in medium with 0.5% serum for 24 hours, after which they were stimulated with human VEGF165 and/or murine PIGF, or bFGF (all from R&D, Abingdon, UK) for 24 hours before analysis of the total cell number (proliferation) or the number of cells migrated after scrape-wounding (migration).” left out

[4] = test system: PIGF^+/+ and PIGF^−/− endothelial cells; experiment: Endothelial cell migration (chemotaxis); type: cell-based, mouse; settings: for chemotaxis of endothelial cells: 100 ng/ml (VEGF165, PIGF), both genotypes
Procedure: as §1, §2

PIGF^−/− mice = experiment: Matrigel assay, PIGF-/- mice; type: in vivo, mouse; settings: subcutaneous matrigel with 100 ng/ml factor, seven days, n=15
Description: (§5) Since VEGF plays a role in the above-mentioned phenotypes of angiogenesis, arteriogenesis and permeability, we investigated whether PIGF determined the responsiveness to VEGF. Subcutaneous implantation of matrigel (A. Passaniti et al., 1992, Lab. Invest. 67, 519-528) supplemented with VEGF165 (VEGF165) induced a strong angiogenic response in PIGF^+/+ but not in PIGF^−/− mice (hemoglobin content: 0.28±0.02 g/dl in PIGF^+/+ mice versus 0.02±0.02 g/dl in PIGF^−/− mice; n=15; p<0.05).
(§6) In contrast, basic fibroblast growth factor (bFGF) induced a similar angiogenic response in both genotypes (hemoglobin content: 0.28±0.02 g/dl in PIGF^+/+ mice versus 0.25±0.02 g/dl in PIGF^−/− mice; n=15; p=NS). These observations were confirmed by histological analysis and immunostaining for endothelial factor VIII-related antigen.
(§7) Matrigel assay: Ingrowth of capillaries in matrigel was performed as described (A. Passaniti et al., 1992, Lab. Invest. 67, 519-528). […] After seven days, the matrigel pellet with the neovessels was dissected for analysis of neovascularization: one part was homogenized to determine the hemoglobin content determined using Drabkin's reagent (Sigma, St. Quentin Fallavier, France), whereas the other part was fixed in 1% paraformaldehyde for histological analysis.

PIGF^+/+ mice = experiment: Matrigel assay, PIGF+/+ mice; type: in vivo, mouse; settings: subcutaneous matrigel with 100 ng/ml factor, seven days, n=15
Description: as §5, §6, §7

[5] = test system: PLGF^+/+ endothelial cells; experiment: Endothelial proliferation, PLGF+/+ cells; type: cell-based, mouse
Description: as §3, §4
as §2, with “Before stimulation, cells were starved in medium with 0.5% serum for 24 hours, after which they were stimulated with human VEGF165 and/or murine PIGF, or bFGF (all from R&D, Abingdon, UK) for 24 hours before analysis of the total cell number (proliferation) or the number of cells migrated after scrape-wounding (migration).” left out

PIGF^+/+ fibroblasts = experiment: VEGF production by PIGF+/+ fibroblasts; type: cell-based; settings: 100 ng/ml for 48 hours
Procedure: (§8) Expression of VEGF by PIGF^−/− fibroblasts was increased by PIGF (VEGF production per 10^6 cells/ml/24 hours: 180±10 pg after treatment with vehicle versus 440±10 pg after treatment with 100 ng/ml PIGF for 48 hours; p<0.05 versus vehicle). Similar results were obtained for PIGF^+/+ fibroblasts (VEGF production per 10^6 cells/ml/24 hours: 200±8 pg after treatment with vehicle versus 430±5 pg after treatment with 100 ng/ml PIGF for 48 hours; p<0.05 versus vehicle).

PIGF^−/− fibroblasts = experiment: VEGF production by PIGF-/- fibroblasts; type: cell-based; settings: 100 ng/ml for 48 hours
Procedure: as §8

[6] = test system: PIGF^+/+ and PIGF^−/− endothelial cells; experiment: Endothelial cell survival (apoptosis by serum deprivation or TNF-α); type: cell-based, mouse
Description: as §3, §2

[7] = PIGF added to VEGF165, PIGF^−/− endothelial cells

Molecule	migration of smooth muscle cells [1]	smooth muscle cell proliferation [2]	Endothelial proliferation ([3]; 50 ng/ml)	chemotaxis of endothelial cells [4]	hemoglobin content (angiogenic response in matrigel) (PIGF^−/− mice)	hemoglobin content (angiogenic response in matrigel) (PIGF^+/+ mice)	Endothelial proliferation ([5]; 50 ng/ml)	VEGF production per 10^6 cells/ml/24 hours (PIGF^+/+ fibroblasts)	VEGF production per 10^6 cells/ml/24 hours (PIGF^−/− fibroblasts)	Endothelial proliferation ([3]; 100 ng/ml of each factor)	migration of endothelial cells in response to VEGF165 [4, 7]	Endothelial proliferation ([5]; 100 ng/ml of each factor)	proliferation and survival response to VEGF165 [6, 7]	mitogenic and anti-apoptotic activity ([6]; factor alone, endothelial cells of either genotype)
bFGF: basic fibroblast growth factor	stimulated smooth muscle cells of both genotypes	comparable responses	35 ± 5*	both genotypes responded comparably	0.25 ± 0.02 g/dL	0.28 ± 0.02 g/dL	35 ± 2*	–	–	–	–	–	–	–
PLGF: murine Placental Growth Factor (R&D) (protein, UniProt P49764 19-158, looked up) Placenta growth factor: VHSQGALSAGNNSTEVEVVPFNEVWGRSYCRPMEKLVYILDEYPDEVSHIFSPSCVLLSRCSGCCGDEGLHCVPIKTANITMQILKIPPNRDPHFYVEMTFSQDVLCECRPILETTKAERRKTKGKRKRSRNSQTEEPHP	rescued the impaired smooth muscle cell response to VEGF	ineffective by itself, restored the responsiveness of PIGF^−/− cells to VEGF	–	not chemotactic for endothelial cells of either genotype	–	–	–	430±5 pg	440±10 pg	11 ± 1	completely restored the impaired migration	11 ± 1	rescued the impaired proliferation and survival response	not mitogenic nor anti-apoptotic
